B1: OmpF (natural protein, E. coli, UniProt P02931 23-362, looked up)
chain: AEIYNKDGNKVDLYGKAVGLHYFSKGNGENSYGGNGDMTYARLGFKGETQINSDLTGYGQWEYNFQGNNSEGADAQTGNKTRLAFAGLKYADVGSFDYGRNYGVVYDALGYTDMLPEFGGDTAYSDDFFVGRVGGVATYRNSNFFGLVDGLNFAVQYLGKNERDTARRSNGDGVGGSISYEYEGFGIVGAYGAADRTNLQEAQPLGNGKKAEQWATGLKYDANNIYLAANYGETRNATPITNKFTNTSGFANKTQDVLLVAQYQFDFGLRPSIAYTKSKAKDVEGIGDVDLVNYFEVGATYYFNKNMSTYVDYIINQIDSDNKLGVGSDDTVAVGIVYQF

Test [1] concerns the target T1, Colicin N (E. coli, UniProt P08083 1-387).
T1 sequence (looked up): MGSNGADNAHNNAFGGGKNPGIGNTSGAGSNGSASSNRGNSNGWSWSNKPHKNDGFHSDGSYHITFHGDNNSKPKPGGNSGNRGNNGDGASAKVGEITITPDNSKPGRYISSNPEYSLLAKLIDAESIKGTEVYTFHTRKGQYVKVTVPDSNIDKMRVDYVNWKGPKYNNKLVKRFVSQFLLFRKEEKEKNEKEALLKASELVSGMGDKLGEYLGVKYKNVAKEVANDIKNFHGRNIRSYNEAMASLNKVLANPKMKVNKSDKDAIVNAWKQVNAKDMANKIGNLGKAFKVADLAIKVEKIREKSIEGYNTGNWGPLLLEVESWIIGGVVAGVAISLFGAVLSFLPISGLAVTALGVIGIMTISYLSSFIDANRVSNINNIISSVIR
Description: ITC.

Test [2] addresses B1. Kind of test: ITC.

For B1, the binding result in test [1] was “binds”.

B2: ColN-T (isolated unstructured T-domain of colicin N) (domain or fragment, E. coli, UniProt P08083 1-90, looked up)
chain: MGSNGADNAHNNAFGGGKNPGIGNTSGAGSNGSASSNRGNSNGWSWSNKPHKNDGFHSDGSYHITFHGDNNSKPKPGGNSGNRGNNGDGA
The term Kd denotes the constant that tells how readily two partners part at equilibrium. Lower therefore signals a tighter complex. The stoichiometry N is the number of molecules, sites or subunits per partner or assembly. For the molecule B2, in test [2], the equilibrium dissociation constant (Kd) came out at 3.48 µM, the dH is -19.1 kcal/mol and the “stoichiometry N” value came out at 2.29.

These data come from publication PMC3739937 (Molecular Microbiology, 2013).
